From paper PMC3315485

Legend:
Assay in all cases: MITOMI
[1] = system: MarA RTR (Escherichia coli); details: MITOMI at 295 K; buffer, salt and pH not given in the material; scale: ddG kJ/mol vs strongest site
[2] = system: MarA TRR (Escherichia coli); details: MITOMI at 295 K; buffer, salt and pH not given in the material
[3] = system: MarA wild type (WQR) (Escherichia coli); details: MITOMI at 295 K; buffer, salt and pH not given in the material
[4] = system: MarA RQR (Escherichia coli); details: MITOMI at 295 K; buffer, salt and pH not given in the material

| Substance | binding signal [1] | further results |
| --- | --- | --- |
| mar site GAA | > 3.3 | – |
| mar site GAC | > 3.3 | binding signal (relative KA (strongest site = 1)) [2]: 1 |
| mar site GAG | > 3.3 | – |
| mar site GAT | > 3.3 | – |
| mar site GCA | – | binding signal (relative KA (strongest site = 1)) [3]: 1; binding signal (fold reduced affinity vs TCC) [4]: 1.6 |
| mar site TCC | – | binding signal (relative KA (strongest site = 1)) [4]: 1 |
